The NTF2 design screens of Basanta et al. (2020)

Test: protease stability score; higher = more stable; yeast display proteolysis, trypsin and chymotrypsin;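 also: log10 excess protease needed over predicted unfolded state with 0 meaning unfolded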

| Sequence | protease stability score |
| --- | --- |
| DDEVLDQVKEFLKAVKTGNDQQIKRLADKDVHFKIGDDVIDGREKVTKEWKQQHREMSVDYKKVKLQKRPNRAIVTYDVHYRHNGRPQSLKVQVRFTFDNGKLQSMSVTNSQ | -0.006 |
| DDEKLAREFQEKLREALRSGDDKKMVELMDKDARVVVGDKEIQGREEIAKTWATKATQADHVEVHIRNLRVENGRVTVNVEVRLNNNGQDRTNNNTLQNEVHNGHIHMKRQKEN | -0.274 |
| DDHKLAEDIIQEFHEAMERGDPDQIQKLADKDVTINYGDKRIRGRETATRFWREVMDRIDHVEVTIRELRVKGDKIQFVVLINQNHNGQTTNRHVEASVEVHGDKYRNKSFQFQ | 0.35 |
| DDSFVEKLQELLEDGNFERVADMADPNAQFRYGNRDLHGREELRKDAREFLSRVDHYQVDSFHVDNGQLNVTAQATFDGRDYKFTMTLRAKNGRVKSFKISFTSEQQNRQLDEKRE | -0.004 |
| DEEEQQKVADKIVEVLKSGNPDEMMKLADENVRAQVGDKTYHGREELKKWMKEVRDRVDRIRVETWEVHNGTVNIIVRMDVDGQTLTLTITANIHNGRIKQIVIEYRDDDELRKAQK | 0.729 |
| DEKALRVAEEAIKAVQTGDPKKFATMADENARVRIGDKEVKGRENQVQLMKDWKHHMRWEQDVKSVTANGDKVEVKFEQVSETNGKPDHDTWNVHFTAQNGEVKSMTMTSNK | -0.504 |
| DTERNAKEAVTRLKKVFTHNDPDKIASMFDENAHIEVGDKRYHGHEEVKRWADDMRNQYDHWDADVRSIDVHGDKVHVEAVITAERNGKTLERTFVVIFDRDNGQLRIHELRDQ | 0.926 |
| DDDQVRKYQHWLQEQEKGNEESLMEKMDPNVRIRVGNNEVHGREQAAHDIRKTQQEIRVQIDFKSVDAHNGRFDFKFTAQFEVNGTPFRYSASATVVAHNGHIKRVEIRVDPEVQRKRNK | -0.079 |
| DEKDKARRMAETIDKLAERNDFEELAKNADPDAKVTVGDKTFHGEENLVKHLQEERKRIDQVRIEVKDVKVQGDEIRINAKYEATHNGRRVDQQVRVIVEVHNGRLVISEMQYE | 0.979 |
| DEEDLKKLAKELEKAIKTGDPQKIVDMADPNAKAQIGDKEVHGQENLHEAMQKLSREVDHIEIRSLSIHGEKVELVFVLQVNGRKRTYTVEMTAHNGKITHMTWRHQ | 0.284 |
| DEEDEDWAEKVATTGNFDEAARDADQNATVKVGDKTWHGREEVTRAMDLLEKQADHVRVSRFKVENGEVNFHVVIEFNGNEIDVTANARFRNGRLTYFSIDARSEHESKSLQKLLE | 0.497 |
| DEERLAKEVNDQYQHIMDTGDPDQARKLFDENARVDIGDKQYHGREEAVEAFQQRMNRVDHIDIKIDEVKVRNGEIDVKFEINQNSNGKNVHRNIRFTMRVNGDKYAIVDMHVQ | 0.367 |
| DDDAARQFEEVMKAVEHGDPHQVEELVDPNATFNVGDKRWHGMRENMQEHISRFQSINMTVEIKRVEDTNGRAKFEASVTRNDNGKPDTFTVEIVVRVHNGEIKEVQLNNTK | 0.158 |
| DSDEVRKFNEKVKTGNPKHLQDMFDENAKVQIGNKDFRGREHVQTVIDKIERDVDHKEIKRMEVKGDHFEIDAIYNINGHNIRMIIKIQVRNGKIQNMTVEFTNEEQQEIFEENVQ | 0.423 |
| DEETIKHLVKVLEDGDKKRFQKLADPNVRMRVGDKQVHGREKAATLWQHFMDSVDHFFIDHVHIDGEKAHIRADLVVNGQRDTVSIDIKVHNGRIKDVVLRFRDPDYKRKVEKVLG | 1.56 |
| DEQAVNEVEKMWRAIHDGDPERINKMFDPNAKFHIGNKELHGRENFATTMVKEQREIRRRVDIIRMSAHNGRITVRYRVDAEVNGEPYSNDITVSATVHNGKATDFTVHVDEDYLRKFNS | -0.004 |
| DDEHIKEFLQVVRRGDPDKILKMIDPNAHLQVGDKDLHGRDAVKKAQDKLETTVDHFEVEEVHFQGDNVVVTYLLNVNGKSITVQLVANIEDGRIKSMRIEARSEEDHKILNEQQG | 0.693 |
| DDHNIQRLKQFLDDWERGDPDKLKDLVDPNVEFRIGEREVHGMDHWATQLTEERRDQRFQLKDMRVQERPGRVEVRLDYEQDHNGKPERQIVKFVAQATNGELKWVNWTRDS | -0.017 |
| DEEKVKEIAKNFADAMRNGDPDQASKLLDPNAKIHVGEFNYKGREAANRMAKTMRDQFDHLDIKSIEVSGNSIKIEAQLHYNGQTIDIELFITVHNGHIESVTLHYRNEEDEEKLQS | 1.08 |
| DDEERHKDAQKAMHLYQRGNPDEMDRLMDPNVKVRVGDETYHGREQANRAFKKIRDRVDHINVKSVSVHGNRINIVAEVNINGRNDILRVIIDYHNGRARRVIITHK | 0.204 |
| DEDLVERVQDLLEAERENDEDTVSKMVDPNVKFSYGNRELHGREQWTKHVAEKQKQMRIQIDIDSYSVQGNHATFTAKITVHINGKPMSDTVTFQIVFSNGKVEEVRMRIDPRFQREVES | 0.016 |
| DEQKTRQLEEVKKQLEHGNEREAKKNFDENVHINVGDKQIHGMHDAAREMATSWTQIRNEMTITRVHVRGDKIEIRASMVQNTNGRPRKAKVHIDVRINNGKIKRVTVKYDG | 0.181 |
| DQDALRKWEEILKAMETGDREKVAQLVDPNARVVYGDKEVRGRESIRKRVKEIRDELRFSMELKRFDDHNGRASATLKMNAEHNGQPIHRTASVEIEVQNGRIKSMEIQLRG | 0.062 |
| DTESAQTFVDVLEEGDFDTLVNLMDKNARLQVGDTTFNGRENARHFFELMKDKVDHLKIDHYEIHGNHVNIDMKLNVNGKTVDVVVYVKFHNGRIQHLRIEARDPEDMRTFKENMR | 1.35 |
| DHEESKDIAEKAVKAIETGDPDKFVSNMDKDASARIGDKTYHGRENLRKAMEDFRNQVDHLRVQSYKVSGNTQKLDMRADFNGRTRVITVVMQMENGRVSFIRVHIE | -0.359 |

| Sequence | protease stability score |
| --- | --- |
| DEDLMERLKTILDAQSNGNPDELRRMFDPNAKIDIGDKEYHGMENFASNQHKRVKHIEQKYQFKSISAEGDKLDVRLRAQQVVNGTPRKYEYNLTARMSNGKVKSMEVQIPEEVLKRLEK | -0.219 |
| ENHVMNNAEKYLRLLEKGDEEELVKMADPNAKFRIGDKHVHGMESFADDLFRKQKEIRMEINIKHYEVQGDHVTIKAEQEKQHDGRPRRDTNKIIMQVHNGKIKQVTFTSDG | -0.222 |
| DDDAVRKARELQKAYDHGDEQKVRDLADPNARVRVGDKKLHGMEDIAHTLAERDKQIDNTVRVDRITAHNGRVDANLRMRNNNNGRPNNFELDLKVVVDNGNIVDVDRQNNR | -0.207 |
| DDHRAKQAVKAWTDNNPDNLRELFDKNVRVEIGEFTLHGREDAQSMVQRLHSRADHVEYKDIKVSNGRINIDVVYMVDGHRVRATIHLTIENGRLKSMEVRFTSEEDQKKAKRAFE | 0.09 |
| DEDDKQRHAEKYAKLWQEGNEDELQKQMDPNAKVVVGEKRLKGREQIKKWLEEWRKHADEVQVISVSVEGERLVIRFRANINGKTYHDTQTMIYDNGEIQDVRFDPKWLHDLKR | 0.625 |
| DDDHATEIAKRMIDNFTTGNEENVKRLVDPNATVRIGDKRFHGRDHIRDAIRQIKERIDHIQVRTFTAHNGRIRITAEVKINGQSKEIHIELRIHNGHVVFFQLNVRNEEEWKTALS | 1.05 |
| DEESDKKFLEKIRKLFEDGDPDQFRKMFPPDATAVIGDKSVHGNQVEQAVNTFEKNRADHVRIDSFEVSNGRVDIDVVVNHNGEERRIKIVFIARNGRLEHMRFVST | 0.215 |
| DEEKHDDFARKLVRAVQSNDFRQQEKMFRQDVRMRVGDKEVHGREQFRDWLRTLDEEVDRYEVKSVTAQGDKVKIVAVFRINGKQFTLTVTIHVSNGKAVNMRINPDQQRQQER | 0.104 |
| DEERVNDIAHKIAQNLRTNDEEQLVRMMDENAKVTVGEHRIDGREQIRTMWHKIKQHVDHVEVKHVEARGDRIRIIIVLNHNGRQRTIVMYVSIHNGHIKVLKIESQ | 1.51 |
| DEHKQIREFQKKQQKWWERGNWEELDKMFPPDARMSIGDTTVHGRESIRKTLKDLVDSADSVSVEFKHFKFHNGRAHVDAVLSVDVNGKKVDVKFNANLQVHNGTLFVDEVVRK | 0.118 |
| DEEVQELVERIMTAFRTGNPEEVHKNLDPNAHIEVGDKRLHGMETIVHTIERKLRHARIDMKIDEMEVRNGRVEARVSFHVDVNGEPYSNSFSFQIEARNGKVKKVRVQIDPRDQRKMDS | 0.877 |
| DERDQELFQNFIKALQTNNPDQVMEQVDPNAEIQYGDRVVRGRHQLRREVEQEHHEMRNDIKVRSIRANNGHVEATFDVVFEINGKPVENRVSVILEMRDGRAKHIEWRIPSEVKEQLKG | 0.059 |
| DHDLVKHLESFIKNLQDGDDDKLAKYADPNAHIEVGDKVVSGRKQLQEEVRRQRKRMRISLDVKDVKAHNGQADVTFDQRVEVNGRPWQNRYTVIFFLHNGTLREARFDIPEREQRKLES | 0.189 |
| DEESNHDVARKLMRALETGDPDKLRELADKHARITVGEKTIHGREDASRFAKELRDRIDHATVKHMDVDGNKVVINMTVRVNGRDLEVFVTAIVTNGRIKHIRFQYTDEDKNKEVEG | 1.18 |
| DDEERAEQFFRDIVEAIRTNDEERLRHLFDENAHAQVGDKTLHGREQIVKEIVSMAQSADHVSFQLRDLSVDGETITFYFKVQYTRNGRQTSKDVIIVARQSGDKLSVKTEVDS | 1.4 |
| DETQMDHIRRFFEAVVNGDPDELERQADPNVKFSVGNQQWHGENQLKKEAEKRRKEIRINIKSMEVRVHGDSVVVHIRQEVEVNGQPEDITFTMTVEVSNGKIKSVDVQMDQQEERNVQR | -0.342 |
| DEKEQTDILLRAMQILTHGDEKRFEELADPNVHVDVGDKTVHGRTQARKWYHDLRRQVDRIHIKHVTVKNGRATIDVVFDRNGRKEKMVLVIQAHNGKIKRAKVEES | -0.125 |
| DEEDEEVVRQWLEAYKTGDPDQLKRNADPNARIQVGDKVLHGMEDAKTELKEQRDHQRFRFHMDSVSVHGNRVEITMKADVDVNGRPIHFTNSFVFTLHNGKIRHIDLQVPEELKHQMTK | -0.125 |
| DEEVAREMMTKWMRAVQKGDPDTVDKIYNPNGKWKAIDTERQGSEHIKKVMQRVKKQGVEFQVRKAKVEGNQAVVIYDFKLANKTVTFTVELRVQGGRVKEVRVEVDEEAKKDMKKG | 1.14 |
| DEEEVRKVLERLQKAVEKGNADEIAKLLKDDGEFVLIDERYKGQEDAKQVIKELQDKGFEFHTEEIQVKGGTAEVKTVWRVGDRELHLKVRYVVRGDKVDQVHAQWSKDAKEDLKKG | 0.691 |
| DEERNEKAAHEMLKVFQRGDPDQFRDLIDPNARANVGDKKYHGRENLTHMFKHFVHRADHLEMQHVKVSGETVEIHIRAKINGKTIDFTIRIIVDNGKAREINFDPDMLKRMRG | 1.23 |
| DRKTEKDAIERARTALQDGDPQQAFDLFDENAKIVVGDQEYHGREQVSTAVEEFRKEIDHFEVERVSVHNGHATIDARVEHNGRSDDVTFHVTVHNGQVREAQVRTK | -0.213 |
| DPTKALRLADTALRAFANGNSDQVKQHLKPDVRARVVDEETQGVDQIVKQLQHFVKVGVQRQVDEVRHEGNQVEAHTQYQVGDNQATMTVVYRAQNGKVDEIEVRYDERAKKIFEQG | -0.115 |
| DQHVEDVARKFINAMQTGDPDRLKELFDPNARQQVGDTVVTGREHAAKKWKEWVDEMEVHVQLRSIDVRGDKATLRFKLEVRVNGKPSQQDVTMVIHMHNGRAVDVKLSIDERDKKEIDS | 1.42 |
| DEEALHLATQLYTNWRNNNPEEVVKLLDENARINVGDFNVTGRNNVRSTLEHLNREMHFEMRISSVDDHNGRAHLTVEARKNINGQPRNVSMKMEVQFHNGKIQQIVAHMPEEDIRTLQS | 0.811 |
